The labels stand for the following.
B1: VR28 (designed binder)
chain: VSDVPRDLEVVAATPTSLLISWRHPHFPTRYYRITYGETGGNSPVQEFTVPLQPPTATISGLKPGVDYTITGYAVTVAQNDHELITPISINYRT
notes: scaffold said to be unchanged from wild type 10Fn3; Flag-tagged in vitro translated protein in the radioactive assay, His6-tagged E. coli protein in BIAcore; tags left out; also called VR28 (I69T)
B2: 159(Q8L) (designed binder)
chain: B1 chain with T56A, V77M, N80S, D81G, I85F
notes: clone 159 with Q8 corrected to the wild type L; His6-tagged E. coli protein in BIAcore, tag left out; also called Clone 159 (Q8L)
B3: M5FL (designed binder)
chain: B1 chain with T56L, V77K, A78E, Q79R, D81G, H82R, I85F
notes: 10Fn3 clone with WT N-terminus; Tail and tag not included here; also called clone M5FL
B4: CT-01 (designed binder)
chain: EVVAATPTSLLISWRHPHFPTRYYRITYGETGGNSPVQEFTVPLQPPTATISGLKPGVDYTITVYAVTDGRNGRLLSIPISINYRT
notes: Core form of CT-01
B5: E26 (designed binder)
chain: B4 chain with V64G, D69V, G70E, L75E, S77M, I78T
notes: Del 1-8 10Fn3 clone; Flag-tagged in vitro translated protein in the radioactive assay, His6-tagged E. coli protein in BIAcore and cell assays; tags left out
B6: E19 (designed binder)
chain: B4 chain with V64G, D69V, G70E, L75H, S77M, I78T
notes: as for B5
B7: E18 (designed binder)
chain: B4 chain with V64G, D69V, G70E, L75E, S77N, I78T
notes: as for B5
B8: E29 (designed binder)
chain: B4 chain with V64G, D69V, G70E, L75V, S77M, I78T
notes: as for B5

Substitutions are numbered along the chain they refer to. Names may count otherwise. A value given as a limit tells only on which side of the number the result lay.

The first experiment addresses T1, human vascular endothelial growth factor receptor-2 Fc chimera (KDR-Fc) (human, UniProt P35968 20-764).
T1 construct: range 1-764; purchased from R&D Systems; also called hKDR; human VEGF-R2-Fc; not shown: human IgG1 Fc
As to the kind of experiment: radioactive equilibrium binding. As to the method:
To prepare ³⁵S-labeled binding proteins for analysis, mRNA was prepared as described above for RNA-protein fusion production but the linker ligation step was omitted. The mRNA was expressed using rabbit reticulocyte lysate translation kit (Ambion) in the presence of ³⁵S-labeled Met at 30° C. for 1 hour. Expressed protein was purified on M2-agarose Flag beads (Sigma) as described above. This procedure produced the encoded protein without the nucleic acid tail. […] of the reaction mixture and elution were dried onto a LumaPlate-96 (Packard) and the amount of ³⁵S on the plate was measured using a TopCount NXT instrument (Packard). The amount of fibronectin-based scaffold protein bound to the target was estimated as a percent of radioactivity eluted from Protein A magnetic beads compare to radioactivity in the reaction mixture. Nonspecific binding of fibronectin-based scaffold proteins to the beads was determined by measuring binding in the absence of KDR-Fc and represented less than 1-2% of the input. […] Data was analyzed using the GraphPad Prizm software (GraphPad Software, Inc, San Diego, Calif.), fitted using a one site, non-linear binding equation.
With B1, the Kd was found to be 11 nM.

In another experiment the target is mouse vascular endothelial growth factor receptor-2 Fc chimera (Flk-1-Fc) (mouse) (UniProt P35918). As to the kind of experiment: assay not given.
mouse vascular endothelial growth factor receptor-2 Fc chimera (Flk-1-Fc) (mouse), sequence (P35918 20-762, change not shown): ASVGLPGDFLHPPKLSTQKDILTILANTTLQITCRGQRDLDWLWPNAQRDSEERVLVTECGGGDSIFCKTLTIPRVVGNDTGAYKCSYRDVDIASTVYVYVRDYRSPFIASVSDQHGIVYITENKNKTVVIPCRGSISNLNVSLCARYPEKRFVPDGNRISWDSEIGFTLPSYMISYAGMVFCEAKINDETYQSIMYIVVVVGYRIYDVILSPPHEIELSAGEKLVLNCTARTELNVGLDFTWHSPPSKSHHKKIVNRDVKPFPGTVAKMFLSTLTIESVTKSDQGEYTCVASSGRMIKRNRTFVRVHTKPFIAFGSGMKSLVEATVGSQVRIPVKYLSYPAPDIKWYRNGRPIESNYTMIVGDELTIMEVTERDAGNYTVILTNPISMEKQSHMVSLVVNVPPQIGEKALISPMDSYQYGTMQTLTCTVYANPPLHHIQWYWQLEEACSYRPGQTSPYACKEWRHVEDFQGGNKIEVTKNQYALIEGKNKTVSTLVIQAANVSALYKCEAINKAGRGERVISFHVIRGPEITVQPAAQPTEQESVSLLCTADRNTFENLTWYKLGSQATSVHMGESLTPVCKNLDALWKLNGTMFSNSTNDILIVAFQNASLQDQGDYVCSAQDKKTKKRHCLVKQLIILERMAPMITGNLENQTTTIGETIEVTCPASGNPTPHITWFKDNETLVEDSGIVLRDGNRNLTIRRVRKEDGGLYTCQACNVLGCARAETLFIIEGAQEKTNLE
In the case of B2, the Kd was over 3000 nM.

Another experiment concerns the target T2, mouse vascular endothelial growth factor receptor-2 Fc chimera (Flk-1-Fc) (mouse, UniProt P35918 20-762).
T2 construct: Purchased from R&D Systems; also called mouse VEGF-R2; not shown: Fc part of the purchased chimera
As to the kind of experiment: Kd for Flk-1 against clone 159Q(8)L.
T2 sequence (P35918 20-762, change not shown): as above
As to B3, the “fold improvement over the original clone (159Q(8)L)” value amounted to 1000 fold.

For another experiment, the target named is T1, human vascular endothelial growth …. The experiment in a line: radioactive equilibrium binding assay, KDR-Fc. The protocol: (§1) To prepare ³⁵S-labeled binding proteins for analysis, mRNA was prepared as described above for RNA-protein fusion production but the linker ligation step was omitted. The mRNA was expressed using rabbit reticulocyte lysate translation kit (Ambion) in the presence of ³⁵S-labeled Met at 30° C. for 1 hour. Expressed protein was purified on M2-agarose Flag beads (Sigma) as described above. This procedure produced the encoded protein without the nucleic acid tail. In a direct binding assay, VEGF-R2-Fc fusions in concentrations ranging from 0 to 200 nM were added to a constant concentration of the purified protein (0.2 or 0.5 nM) and incubated at 30° C. for 1 hour in buffer B. The receptor-binder complexes were captured using Protein A magnetic beads for another 10 minutes at room temperature using a Kingfisher™ The beads were washed with six reaction volumes of buffer B. The protein was eluted from the beads with 100 μL of 0.1 M KOH. […] of the reaction mixture and elution were dried onto a LumaPlate-96 (Packard) and the amount of ³⁵S on the plate was measured using a TopCount NXT instrument (Packard). The amount of fibronectin-based scaffold protein bound to the target was estimated as a percent of radioactivity eluted from Protein A magnetic beads compare to radioactivity in the reaction mixture. Nonspecific binding of fibronectin-based scaffold proteins to the beads was determined by measuring binding in the absence of KDR-Fc and represented less than 1-2% of the input. Specific binding was obtained through subtraction of nonspecific binding from total binding. Data was analyzed using the GraphPad Prizm software (GraphPad Software, Inc, San Diego, Calif.), fitted using a one site, non-linear binding equation.
Regarding B1, the Kd is 11 nM.

A further experiment has as its target T2, mouse vascular endothelial growth …. As to the kind of experiment: KD against mouse Flk-1 by the BIAcore binding assay; value not given. The protocol:
Following the methodologies described in the preceding Examples, additional ¹⁰Fn3-based KDR binding proteins were generated. As described for the development of the M5FL protein in Example 5, above, proteins were tested for KD against human KDR and mouse Flk-1 using the BIAcore binding assay and for IC50 in a Ba/F3 assay.
(§2) The binding kinetics of fibronectin-based scaffold proteins binding proteins to the target was measured using BIAcore 2000 biosensor (Pharmacia Biosensor). Human and mouse VEGF-R2-Fc fusions were immobilized onto a CM5 sensor chip and soluble binding proteins were injected at concentrations ranging from 0 to 100 nM in buffer 0 (10 mM HEPES, 150 mM NaCl, 0.005% Tween 20, pH 7.4). Sensorgrams were obtained at each concentration and were evaluated using a program, BIA Evaluation 2.0 (BIAcore), to determine the rate constants kₐ (kₒₙ) and kd (koff.) The affinity constant, KD was calculated from the ratio of rate constants […].
Background: Surface plasmon resonance follows binding to a sensor surface in real time, without labels.
For the molecule B4, the binding result is reported as “binds”.

In the next experiment the target is T1, human vascular endothelial growth …. As to the kind of experiment: radioactive equilibrium binding assay. As to the method:
as §1
Take B1: the Kd is 11 nM.
Still for that read-out and setting: as for B5, the figure is under 1.7 nM.
Still for that read-out and setting: the same measure for B6: under 1.3 nM; for B7: under 1.2 nM.
On the same count and under the same terms, as for B8, the figure is under 1.5 nM.

The target in another experiment is T3, mouse vascular endothelial growth factor receptor-2 Fc chimera (Flk-1-Fc) (mouse, UniProt P35918 20-762).
T3 construct: purchased from R&D Systems; also called mouse VEGF-R2-Fc; not shown: Fc part of the purchased chimera
As to the kind of experiment: radioactive equilibrium binding assay. The protocol:
as §1
T3 sequence (P35918 20-762, change not shown): as above
On to B1, for which the binding result is “no binding (tested: 100 nM)”.
Regarding B5, the Kd came out at 2 nM.
Still for that read-out and setting: the same measure for B6: under 0.7 nM; for B7: under 0.5 nM.
On to B8, for which the Kd is under 0.9 nM.

The target of the next experiment is full-length human KDR on cells (human, UniProt P35968 20-1356). As to the kind of experiment: cell-based or functional assay.
Consider B3, for which the “HUVEC proliferation assay: decrease in proliferation” value is about 40%.

For the next experiment, the target named is T4, murine VEGFR-2/EpoR chimera (flk-1/EpoR fusion, pmKE2) on cells (mouse; human, UniProt P35918 20-762; P19235 251-508).
T4 construct: range 1-762;range 251-508; also called CHO Flk-1; CHO-Flk
T4 sequence (P35918 other isoform, or with tags, fused parts or gaps mutant limits assumed, form in doubt): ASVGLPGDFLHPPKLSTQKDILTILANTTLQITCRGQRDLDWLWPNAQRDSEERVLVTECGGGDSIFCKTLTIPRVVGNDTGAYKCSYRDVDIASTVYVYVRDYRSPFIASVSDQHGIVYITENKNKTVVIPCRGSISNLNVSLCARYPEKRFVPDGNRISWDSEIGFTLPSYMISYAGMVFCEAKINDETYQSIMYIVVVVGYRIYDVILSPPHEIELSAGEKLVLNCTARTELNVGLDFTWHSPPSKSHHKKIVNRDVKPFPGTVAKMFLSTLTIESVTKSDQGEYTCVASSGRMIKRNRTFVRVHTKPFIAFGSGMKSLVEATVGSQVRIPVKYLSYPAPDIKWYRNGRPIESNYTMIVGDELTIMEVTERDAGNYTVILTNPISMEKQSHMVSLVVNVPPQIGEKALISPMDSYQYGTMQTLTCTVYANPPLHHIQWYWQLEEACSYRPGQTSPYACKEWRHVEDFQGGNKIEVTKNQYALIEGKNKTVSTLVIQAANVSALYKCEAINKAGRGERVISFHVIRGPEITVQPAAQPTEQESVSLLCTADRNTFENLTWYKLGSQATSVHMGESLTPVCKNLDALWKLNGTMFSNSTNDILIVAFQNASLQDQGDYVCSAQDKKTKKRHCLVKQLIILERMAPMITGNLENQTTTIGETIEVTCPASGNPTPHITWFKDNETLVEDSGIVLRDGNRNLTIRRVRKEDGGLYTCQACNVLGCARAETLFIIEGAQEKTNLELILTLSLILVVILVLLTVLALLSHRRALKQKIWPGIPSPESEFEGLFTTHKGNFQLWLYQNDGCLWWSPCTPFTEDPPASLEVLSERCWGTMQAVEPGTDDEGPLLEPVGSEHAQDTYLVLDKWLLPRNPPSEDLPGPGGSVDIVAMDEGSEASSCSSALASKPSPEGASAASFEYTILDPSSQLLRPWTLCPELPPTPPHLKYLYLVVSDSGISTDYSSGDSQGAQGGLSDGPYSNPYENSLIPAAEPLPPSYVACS
As to the kind of experiment: flow cytometry on CHO Flk-1 cells. The protocol: (§3) The functionality of KDR and Flk-1 binding molecules in a cell culture model system was evaluated with E. coli produced binding molecules.
(§4) Binding of fibronectin-based scaffold protein to cell-surface KDR and Flk-1 was analyzed simultaneously on VEGF-R2-expressing and control cells by flow cytometry. CHO-pcDNA3 cells (control) were released from their dishes with trypsin-EDTA, washed in Dulbecco's PBS without calcium and magnesium (D-PBS⁻; Invitrogen), and stained for 30 minutes at 37° C. with 1.5 μM CMTMR (5-(and -6)-(((4-chloromethyl)benzoyl)amino)-tetramethylrhodamine) (Molecular Probes). The cells were washed in D-PBS⁻ and incubated for a further 30 minutes at 37° C., and then resuspended in blocking buffer (D-PBS⁻/10% fetal bovine serum) on ice. CHO-KDR or CHO-Flk cells were treated identically except that CMTMR was omitted. 75,000 of CMTMR-stained CHO-pcDNA3 cells were mixed with an equal number of unstained CHO-KDR or CHO-Flk cells in each well of a V-bottom 96-well plate. All antibodies and fibronectin-based scaffold proteins were diluted in 25 μl/well of blocking buffer, and each treatment was conducted for 1 hour at 4° C. Cell mixtures were stained with His₆-tagged (SEQ ID NO: 235) fibronectin-based scaffold proteins, washed twice with cold D-PBS⁻, and then treated with 2.5 μg/ml anti-His₆ (SEQ ID NO: 235) MAb (R&D Systems), washed, and stained with 4 μg/ml Alexa Fluor 488-conjugated anti-mouse antibody (Molecular Probes). For cells treated with an anti-KDR mouse monoclonal antibody (Accurate Chemical, Westbury, N.Y.) or an anti-flk-1 goat polyclonal antibody (R&D Systems), the anti-His₆ (SEQ ID NO: 235) step was omitted, and antibody binding was detected with the species-appropriate Alexa Fluor 488 conjugated secondary antibody (Molecular Probes). Following staining, cells were resuspended in 200 μl/well D-PBS⁻/1% FBS/1 μg/ml 7-aminoactinomycin D (7-AAD; Molecular Probes) and analyzed by flow cytometry on a FACSCalibur (Becton Dickinson, San Jose, Calif.) equipped with a […].
In general terms: In flow cytometry, cells or beads pass a laser one at a time.
Regarding B5, the EC50 was 1.3 nM.
The same measure, in the same setting: the same measure for B6: 5.3 nM.
In turn, B7 displayed an EC50 of 0.9 nM. This EC50 lies about 5.9-fold lower than the previous one.
Still for that read-out and setting: as for B8, the figure is 0.6 nM.

Another experiment addresses T5, full-length human KDR on cells (human, UniProt P35968 20-1356). As to the kind of experiment: cell-based or functional assay.
In the case of B5, the “Inhibition of VEGF-induced proliferation of HUVEC cells (IC50, nM)” value was 14 nM.
The same measure, in the same setting: the same measure for B6: 11.8 nM.
Same read-out and setting: the same measure for B7: 12.8 nM.
Still for that read-out and setting: as for B8, the figure is 8.4 nM.

The target of a further experiment is human KDR/EpoR fusion (phKE8) on Ba/F3 cells (human, UniProt P35968 20-764; P19235 251-508, limits assumed). The experiment in a line: cell-based or functional assay.
For the molecule B5, the “Inhibition of VEGF-induced proliferation, Ba/F3-KDR (IC50, nM)” value was 3.2 nM.
For the molecule B6, the “Inhibition of VEGF-induced proliferation, Ba/F3-KDR (IC50, nM)” value stood at 12.3 nM.
Still for that read-out and setting: as for B7, the figure is 5.4 nM; as for B8, 10 nM.

Another experiment concerns the target T4, murine VEGFR-2/EpoR chimera (flk-1/EpoR …). As to the kind of experiment: cell-based or functional assay.
On to B5, for which the “Inhibition of VEGF-induced proliferation, Ba/F3-Flk (IC50, nM)” value was determined as 5.3 nM.
Still for that read-out and setting: the same measure for B6: 5.8 nM.
Still for that read-out and setting: the same measure for B7: 2.4 nM.
Still for that read-out and setting: as for B8, the figure is 4.7 nM.

For the next experiment, the target named is T5, full-length human KDR on cells. As to the kind of experiment: flow cytometry on CHO KDR cells. As to the method: as §3, §4
As for B5, the EC50 worked out at 2.6 nM.
Same read-out and setting: as for B6, the figure is 7.6 nM.
The same measure, in the same setting: the same measure for B7: 4.2 nM; for B8: 2.3 nM.

A further experiment concerns the target T1, human vascular endothelial growth …. As to the kind of experiment: radioactive equilibrium binding, 1 nM KDR-Fc. A digest of the protocol:
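Percent of input bound is specific binding: total ³⁵S eluted from Protein A beads minus nonspecific bead binding without receptor. The binder (0.2 or 0.5 nM) was incubated with titrated VEGF-R2-Fc in buffer B, 30° C, 1 h.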
B1: the “Binding to 1 nM KDR, %” value turned out to be 3%.

The target is the same in the next experiment. The experiment in a line: BIAcore, target-Fc immobilized. As to the method: as §2
B1 registered a Kd of 13 nM, a koff of 0.00034 s⁻¹ and a kon of 30000 M⁻¹ s⁻¹.
For B2 the same measures were 2 nM, 0.0001 s⁻¹ and 50000 M⁻¹ s⁻¹.
For B5 the same measures were 0.51 nM, 5.8e-05 s⁻¹ and 110000 M⁻¹ s⁻¹.
B6 had a Kd of 0.06 nM, a koff of 1.7e-05 s⁻¹ and a kon of 300000 M⁻¹ s⁻¹.
On the same counts, the results for B7 are 0.46 nM, 0.000121 s⁻¹ and 260000 M⁻¹ s⁻¹.
On the same counts, the results for B8 are 0.19 nM, 7e-05 s⁻¹ and 360000 M⁻¹ s⁻¹.

The target of another experiment is T3, mouse vascular endothelial growth …. As to the kind of experiment: BIAcore, target-Fc immobilized. The protocol:
as §2
For B5, the Kd is 2.14 nM, the koff was found to be 0.000477 s⁻¹ and the kon is 220000 M⁻¹ s⁻¹.
B6 showed a Kd of 0.34 nM, a koff of 0.000223 s⁻¹ and a kon of 660000 M⁻¹ s⁻¹.
For B7 the same measures were 0.33 nM, 0.000195 s⁻¹ and 600000 M⁻¹ s⁻¹.
B8 yielded a Kd of 0.37 nM, a koff of 0.000288 s⁻¹ and a kon of 790000 M⁻¹ s⁻¹.

The Kd is the equilibrium constant for the complex coming apart. As usually defined, the EC50 is the concentration needed to bring the measured effect to its halfway point. Read a low EC50 as higher potency in that assay. Usually koff stands for a measure of how fast the partners let go of each other. Low values mean slow dissociation, high ones fast dissociation. The term kon denotes a measure of how fast the partners come together.

The record behind these values is patent publication US20140179896A1 (published 2014).
